Laboratory results as given in patent US8329637B2, “Method for the treatment of automimmune diseases comprising administering rapamycin and IL-10” (priority 2002, dated 2012).

B1: IL-10: Human IL-10 (BD Biosciences), cytokine, 0.05 mg/Kg IP twice a day (protein, UniProt P22301 19-178, looked up)
Interleukin-10: SPGQGTQSENSCTHFPGNLPNMLRDLRDAFSRVKTFFQMKDQLDNLLLKESLLEDFKGYLGCQALSEMIQFYLEEVMPQAENQDPDIKAHVNSLGENLKTLRLRLRRCHRFLPCENKSKAVEQVKNAFNKLQEKGIYKAMSEFDIFINYIEAYMTMKIRN

Experiments:
[1] = system: NOD mice; test: Diabetes inhibition study in NOD mice; assay type: in vivo, mouse
Protocol: (B) Pre-diabetic mice were treated daily starting from 11 weeks of age with either rapamycin, rapamycin+IL-10 or IL-10 alone.
NOD mice were treated from 11 weeks to 31 weeks of age with IL-10 (IL-10, n=7 mice), or rapamycin (RAPA, n=13 mice), or rapamycin+IL-10 (RAPA/IL-10 n=16 mice), or vehicle (CNTR, n=22 mice). Diabetes incidence, monitored by glycemia levels, was stable at least up to 60 weeks of age. Administration of rapamycin alone reduced diabetes incidence from 95% to 46%.
In our proposed protocol, down-regulation of inflammation should be achieved by IL-10, and blockade of T effector cell expansion should be achieved by rapamycin. Neither IL-10 nor rapamycin prevent T cell priming and therefore they should allow induction of antigen-specific T regulatory cells, and as described below, IL-10 should promote the induction and expansion of Tr1 cells. We investigated the effect of rapamycin alone or in combination with IL-10 in treating autoimmunity in the NOD mouse a model for type I diabetes. […] Inhibition of type I diabetes was evaluated by treating NOD mice daily starting at 11 weeks of age (i.e. pre-diabetic mice with periinsultis) with rapamycin, rapamycin+IL-10, or IL-10 alone. […]
Mice. […] Glucose level in the tail venous blood was quantified using Glucometer Elite system (Bayer, Wuppertal, Germany). […]
Diabetes inhibition study. […] Diabetes incidence was monitored by blood glucose levels.

[2] = system: Tr1 and CD4+CD25+ T cells; test: Tr cell content (cytokine profile by CBA, CD4+CD25+ by FACS) in spleen, PLN and IIC of treated NOD mice; assay type: cell-based, mouse; conditions: islet infiltrating cells (FIG. 11)
Protocol: Cytokine production by CD4^+ T cells (left panels) and percentages of CD4^+CD25^+ T cells (right panels) were evaluated by CBA and FACS analysis respectively, in the spleen (A), pancreatic lymph nodes (PLN) (B), and islet infiltrating cells (IIC) (C) of untreated-diabetic NOD mice (gray bars), rapamycin-treated mice (white bars), or rapamycin+IL-10-treated mice (black bars). […] The percentages of CD4^+CD25^+ T cells were higher in the spleen, PLN, and IIC of both mice treated with rapamycin alone or rapamycin+IL-10 (black bars). Therefore, in rapamycin+IL-10 treated mice, Tr1 cells are present in the spleen and CD4^+CD25^+ Tr cells are present in the spleen, lymph nodes, and pancreas.
The mechanisms underlying long-term tolerance were analysed in tolerant mice of 50 weeks of age or older. […] However, the proportion of splenic CD4^+ T cells producing IL-4 was the same in both untreated and treated mice. […]
Flow cytometry. Cells were stained with the indicated Abs (all from BD), and were analyzed with a FACScan flow cytometer equipped with CellQuest software (BD).
Cytokine measurement. Cytokines present in the collected supernatants were quantified by sandwich ELISA or flow cytometry based assay (CBA), using standard commercially available kits (BD). The percentage of cells producing specific cytokines was measured by intracellular staining. […]

[3] = system: allogeneic C57BL/6 β-islets transplanted in diabetic Balb/c mice; test: Allogeneic β-islet transplantation (C57BL/6 into Balb/c), graft survival monitored by glycemia; assay type: in vivo, mouse
Protocol: Balb/c mice that had been rendered diabetic by streptozotocin injection were transplanted under the kidney capsule with purified allogeneic C57BL/6 β-islets. Mice were not treated (control, n=13 mice), or treated with rapamycin+antiTac+IL-10 (IL-10 protocol, n=16 mice) or rapamycin+antiTac+FK506 (Edmonton protocol, n=4 mice) for 30 days. Graft survival was monitored by glycemia levels. A graft was considered rejected when glycemia was higher than 250 mg/dl.
Balb/c mice that had been rendered diabetic by streptozotocin injection were transplanted under the kidney capsule with purified allogeneic C57BL/6 β-islets. Mice were not treated (control, n=8 mice), or treated with rapamycin in combination with IL-10 (rapa+IL10, n=8 mice) or IL10 only (n=4 mice). Graft survival was monitored by glycemia levels.
Allogeneic β-islet transplantation. A model of fully mismatched murine islet allotransplantation (C57BL/6 into Balb/C) was used.
Balb/c mice that had been rendered diabetic by streptozotocin injection were transplanted under the kidney capsule with purified allogeneic C57BL/6 β-islets.
Treatment of transplanted mice. […] Diabetes incidence was monitored by blood glucose levels.

| Molecule | diabetes incidence ([1]; NOD mice treated from 11 to 31 weeks of age, vehicle 95% (FIG. 10A)) [%] | CD4+CD25+ T cells as share of CD4+ T cells isolated from IIC [2] [%] | long-term graft survival ([3]; Balb/c mice treated for 30 days, without antiTac (FIG. 2)) [%] | prevention of graft rejection ([3]; Balb/c mice, FIG. 2) | effect on the development of diabetes ([1]; NOD mice treated from 11 to 31 weeks of age (FIG. 10A)) |
| --- | --- | --- | --- | --- | --- |
| CO[C@H]1C[C@@H]2CC[C@@H](C)[C@@](O)(O2)C(=O)C(=O)N2CCCC[C@H]2C(=O)O[C@H]([C@H](C)C[C@@H]2CC[C@@H](O)[C@H](OC)C2)CC(=O)[C@H](C)/C=C(\C)[C@@H](O)[C@@H](OC)C(=O)[C@H](C)C[C@H](C)/C=C/C=C/C=C/1C [rapamycin] | 46 | ~100 | – | – | – |
| B1 | – | – | 30 | not efficient in preventing graft rejection | no significant effect |
